B1: IL-6 Unfunctionalized-4 (ssDNA)
DNA: CTCGGATGAACCTGGACTTAATGATGCTCATGGTGCTCTTCATCACCATCTTCGTTCCATCCTGCATCGAAGCCAAGATTC
B2: IL-6 Unfunctionalized-5 (ssDNA)
DNA: CTCGGATGAACCTGGACTTCTTCATTGCGCTGGTGCCTGCCATCCTTGTTCCATCCCCTTTGCGCATCGAAGCCAAGATTC
B3: PCSK9 Charged-2 (ssDNA)
DNA: CGAATCAGATTGGACCAGTTTCATCCCTTTTTGCCACCCCTTTGTTGTCCACCCCCATGTCCTGAGTCCAGATGTAGGTAG
modifications: none (no functionalized codon)
B4: IL-6 Unfunctionalized-1 (ssDNA)
DNA: CTCGGATGAACCTGGACTTTATTGCACTGGCTGTACTTTTCGTATCCATGGTCATCTTTTCTAGCATCGAAGCCAAGATTC
B5: IL-6 Unfunctionalized-3 (ssDNA)
DNA: CTCGGATGAACCTGGACTCTGTTTTTACTACCGCGCTAGCCGCCTCATCCGTTTTAGCGCCATGCATCGAAGCCAAGATTC
B6: PCSK9 Unfunctionalized-3 (ssDNA)
DNA: CGAATCAGATTGGACCAGCACCCTCCGTCTCCGCTCCCCTCGTCTTGTTGTTTCCCTTTCCCTGAGTCCAGATGTAGGTAG
B7: PCSK9 Unfunctionalized-1 (ssDNA)
DNA: CGAATCAGATTGGACCAGTTACCGCCCTCTCCCTTTTGTCCCCTCCGTTGTTTCTCTTTCCCTGAGTCCAGATGTAGGTAG
B8: IL-6 Unfunctionalized-2 (ssDNA)
DNA: CTCGGATGAACCTGGACTTTACTGCGGCGCCAGCCGTGCCCATCCTTTCTTCATCCGTGCCCAGCATCGAAGCCAAGATTC

Legend:
IL-6 = IL-6 (UniProt P05231 30-212); assay: SPR
Chain of IL-6 (P05231 30-212): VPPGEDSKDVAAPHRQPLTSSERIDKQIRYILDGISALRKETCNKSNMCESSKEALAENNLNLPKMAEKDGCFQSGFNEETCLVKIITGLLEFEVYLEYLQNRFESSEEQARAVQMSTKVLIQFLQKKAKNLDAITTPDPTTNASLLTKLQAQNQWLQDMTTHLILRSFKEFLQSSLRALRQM

PCSK9 = PCSK9 (UniProt Q8NBP7 153-692); assay: SPR
Chain of PCSK9 (Q8NBP7 153-692): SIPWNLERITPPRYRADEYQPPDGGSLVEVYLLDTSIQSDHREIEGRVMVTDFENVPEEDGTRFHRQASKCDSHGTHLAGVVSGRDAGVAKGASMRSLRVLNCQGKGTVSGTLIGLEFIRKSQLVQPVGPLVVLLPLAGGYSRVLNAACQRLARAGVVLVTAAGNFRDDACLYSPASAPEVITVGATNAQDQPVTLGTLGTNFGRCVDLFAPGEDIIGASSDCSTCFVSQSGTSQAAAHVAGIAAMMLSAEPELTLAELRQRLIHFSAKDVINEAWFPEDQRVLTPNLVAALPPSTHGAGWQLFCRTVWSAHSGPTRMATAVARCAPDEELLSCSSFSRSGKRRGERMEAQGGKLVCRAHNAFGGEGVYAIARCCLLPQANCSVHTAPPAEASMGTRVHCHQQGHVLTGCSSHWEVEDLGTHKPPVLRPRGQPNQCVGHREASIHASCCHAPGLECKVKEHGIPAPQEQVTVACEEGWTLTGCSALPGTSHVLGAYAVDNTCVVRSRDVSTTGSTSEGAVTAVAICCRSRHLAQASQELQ

Binder	binding signal (IL-6)	binding signal (PCSK9)
B1	4 %Rmax	–
B2	4 %Rmax	–
B3	–	11 %Rmax
B4	4 %Rmax	–
B5	3 %Rmax	–
B6	–	34 %Rmax
B7	–	30 %Rmax
B8	3 %Rmax	–

Source: PMC6430648
